Experimental findings from patent CN108727490A (UNIV TSINGHUA; GUANGZHOU 8TH PEOPLES HOSPITAL, dated 2018) are described below.

The assay deals with T1, E-His6融合蛋白 (寨卡病毒 (Zika virus), UniProt A0A024B7W1 292-693).
T1 construct: also called 寨卡病毒的E蛋白; E蛋白
Description: ELISA screen of memory B cell culture supernatants on coated E-His6 fusion protein; the antibody genes were cloned from positive wells.

T1 sequence (A0A024B7W1 292-693, tags left off): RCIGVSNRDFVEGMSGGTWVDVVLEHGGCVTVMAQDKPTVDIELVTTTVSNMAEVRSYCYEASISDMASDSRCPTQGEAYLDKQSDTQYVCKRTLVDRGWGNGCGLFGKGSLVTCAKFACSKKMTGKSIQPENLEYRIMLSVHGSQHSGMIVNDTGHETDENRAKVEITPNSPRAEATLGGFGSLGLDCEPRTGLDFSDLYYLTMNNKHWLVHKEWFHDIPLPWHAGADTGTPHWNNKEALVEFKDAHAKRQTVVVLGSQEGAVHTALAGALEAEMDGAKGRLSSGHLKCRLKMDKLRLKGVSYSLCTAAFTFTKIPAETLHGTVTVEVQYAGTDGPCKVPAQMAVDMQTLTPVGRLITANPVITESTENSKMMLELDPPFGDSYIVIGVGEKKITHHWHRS

B1: 单克隆抗体ZK2B10 (antibody, human IgG1, lambda, V domains shown)
VH: EVQLVQSGAEVKKPGASVKVSCKASGYTFTSGHTFPSYDINWVRQATGQGLEWMGWMNPNRGNTGYAQKFQGRVTMTRNTSINTAYMELSSLRSEDTAVYYCARVRSGTNYGSYYYYYYGMDVWGQGTTVTVSS
VL: SYELTQPPSASGTPGQRVTISCSGSSSNIGNNYVHWYQQLPGSAPKLLIYRNNQRPSGVPDRFSGSKSGTSGSLAISGLRSEDEADYYCASWDDSLSGHWVFGGGTKVTVLG
notes: also called ZK2B10抗体; IgG抗体
For B1, the binding result is recorded as “binds”.
